# Assay results as given in patent US20260217843A1 (APOGEE THERAPEUTICS, published 2026).
# T1: human CD32a 167R (human, UniProt P12318 36-218)
# T1 construct: numbering not explained
# T1 sequence (looked up): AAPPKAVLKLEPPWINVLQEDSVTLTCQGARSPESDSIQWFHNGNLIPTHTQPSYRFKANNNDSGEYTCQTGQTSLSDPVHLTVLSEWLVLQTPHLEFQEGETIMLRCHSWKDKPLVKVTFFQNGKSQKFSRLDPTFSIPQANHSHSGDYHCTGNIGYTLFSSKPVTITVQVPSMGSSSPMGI
# T2: human CD32a 167H (human, UniProt P12318 36-218)
# T2 construct: numbering not explained
# T2 sequence (looked up): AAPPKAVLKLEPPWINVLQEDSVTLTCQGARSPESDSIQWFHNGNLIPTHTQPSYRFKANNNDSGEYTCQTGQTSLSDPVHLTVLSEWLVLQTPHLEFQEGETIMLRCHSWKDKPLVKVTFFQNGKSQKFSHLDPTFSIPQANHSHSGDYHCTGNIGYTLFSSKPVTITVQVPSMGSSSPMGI
# T3: human CD32b (human, UniProt P31994 46-217)
# T3 sequence (looked up): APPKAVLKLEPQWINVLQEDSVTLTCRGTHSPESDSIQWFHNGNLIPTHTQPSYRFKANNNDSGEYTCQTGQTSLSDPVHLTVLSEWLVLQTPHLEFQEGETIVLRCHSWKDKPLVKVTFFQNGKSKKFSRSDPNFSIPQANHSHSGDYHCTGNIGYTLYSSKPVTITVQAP
# T4: hOX40L on hOX40L-expressing CHO cells (human, UniProt P23510 1-183)
# T4 construct: also called cell surface OX40L
# T4 sequence: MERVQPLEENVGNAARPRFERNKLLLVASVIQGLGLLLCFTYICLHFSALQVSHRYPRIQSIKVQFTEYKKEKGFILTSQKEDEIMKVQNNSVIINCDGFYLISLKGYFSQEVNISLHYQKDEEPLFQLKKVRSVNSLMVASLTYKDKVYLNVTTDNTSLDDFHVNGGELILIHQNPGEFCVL
# T5: Recombinant Cynomolgus OX40L Protein, His Tag (SINO BIOLOGICAL, Cat. 11057-C07H) (cynomolgus, UniProt G7NVH7 51-183)
# T5 construct: Bought protein
# T5 sequence: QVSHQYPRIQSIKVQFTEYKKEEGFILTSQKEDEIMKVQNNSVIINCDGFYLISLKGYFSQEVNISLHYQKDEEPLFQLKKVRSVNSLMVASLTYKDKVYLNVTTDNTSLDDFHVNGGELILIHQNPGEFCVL
# T6: Recombinant Human OX40L Protein, His Tag (Acro Cat. IL3-H52H4) (human, UniProt P23510 51-183)
# T6 construct: Bought His-tagged protein; also called hOX40L
# T6 sequence: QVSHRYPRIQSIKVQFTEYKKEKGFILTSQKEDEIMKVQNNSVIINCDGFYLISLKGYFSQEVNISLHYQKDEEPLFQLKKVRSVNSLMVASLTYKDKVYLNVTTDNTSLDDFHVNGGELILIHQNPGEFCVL
# T7: biotinylated hOX40L (human, UniProt P23510 51-183, limits assumed, biotinylated (sites not given))
# T7 construct: construct not described
# T7 sequence: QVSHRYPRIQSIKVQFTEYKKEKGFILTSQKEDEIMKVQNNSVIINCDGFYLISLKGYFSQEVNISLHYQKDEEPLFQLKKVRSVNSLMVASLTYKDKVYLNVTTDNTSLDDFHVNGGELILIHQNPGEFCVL
# T8: hOX40L added as soluble protein in cell assays (human, UniProt P23510 51-183, limits assumed)
# T8 sequence: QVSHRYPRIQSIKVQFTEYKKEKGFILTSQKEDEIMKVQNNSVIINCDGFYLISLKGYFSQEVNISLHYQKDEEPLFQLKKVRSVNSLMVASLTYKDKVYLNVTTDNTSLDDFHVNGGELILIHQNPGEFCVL
# Key:
# [1] = biological target: T9, human CD16a 176F (human, UniProt P08637 17-208); test: SPR (Biacore 8K+), antibody captured by anti-human IgG Fc, receptor injected
# T9 construct: numbering not explained
# Protocol: (§1) Briefly, a CM5 Series S sensor chip functionalized with anti-human IgG Fc antibody was used to capture antibodies at 5 μg/mL. […] The chip was regenerated with 10 mM glycine pH 1.5 and 10 mM NaOH between runs.
# [2] = biological target: T1, human CD32a 167R; test: as above
# Protocol: as §1
# [3] = biological target: T2, human CD32a 167H; test: as above
# Protocol: as §1
# [4] = biological target: human CD64 (human, UniProt P12314 16-288); test: as above
# Protocol: as §1
# [5] = biological target: T10, human CD16a 176V (human, UniProt P08637 17-208); test: as above
# T10 construct: Allelic variant named only as '176V'; numbering not explained
# Protocol: as §1
# [6] = biological target: T3, human CD32b; test: as above
# Protocol: as §1
# [7] = biological target: human CD16b (human, UniProt O75015 17-200, limits assumed); test: as above
# Protocol: as §1
# [8] = biological target: T4, hOX40L on hOX40L-expressing CHO cells; test: flow cytometry on hOX40L-expressing CHO cells, gMFI, nonlinear regression
# Protocol: Nonlinear regression was performed on geometric mean fluorescence intensity (gMFI) values to determine EC50 values (FIG. 1, TABLE 8).
# [9] = biological target: human FcRn (human, UniProt P55899 24-297; P61769 21-119); test: SPR (Biacore 8K+), antibody captured by anti-human kappa, human FcRn injected, pH 5.8; pH 5.8
# Protocol: (§2) Briefly, a CM5 Series S sensor chip functionalized with anti-human kappa antibody was used to capture antibodies at 5 μg/mL. […] The chip was regenerated with 10 mM glycine pH 1.5 and 10 mM NaOH between runs.
# [10] = biological target: T11, C1q; test: SPR (Biacore 8K+), antibody captured by anti-human IgG Fc, C1q injected at 25 nM, mean response
# T11 construct: also called Clq
# Protocol: as §1
# [11] = biological target: T5, Recombinant Cynomolgus OX40L Protein, …; test: SPR (Biacore 8K), antibody captured, cynomolgus OX40L injected, 1:1 fit
# Protocol: (§3) Samples were injected in a multi-cycle manner over freshly captured mAb, by regenerating the capture surfaces with injection of glycine pH 1.5 for 30 sec at a flow rate of 30 μL/min. The data was processed and analyzed with Biacore Insight Evaluation Software Version 2.0.15.12933 (GE Healthcare) as follows. […] The responses from the two buffer blank injections were then subtracted from the reference subtracted data (2-1) to yield double-referenced data, which were fit to an 1:1 binding model to determine the apparent association (ka) and dissociation rate constants (kd). Their ratio provided the apparent equilibrium dissociation constant or affinity constant (KD=kd/ka).
# [12] = biological target: cynomolgus FcRn (cynomolgus, UniProt Q8SPV9 24-297; Q8SPW0 21-119); test: SPR (Biacore 8K+), antibody captured by anti-human kappa, cynomolgus FcRn injected, pH 5.8; pH 5.8
# Protocol: as §2
# [13] = biological target: T6, Recombinant Human OX40L Protein, His …; test: SPR (Biacore 8K), antibody captured, human OX40L injected, 1:1 fit
# Protocol: as §3
# [14] = biological target: T7, biotinylated hOX40L; test: blocking ELISA: biotinylated hOX40L preincubated with titrated antibody, added to coated hOX40-Fc, Extravidin-HRP
# [15] = biological target: T8, hOX40L added as soluble protein in cell …; test: cell-based or functional assay
# [16] = biological target: T8, hOX40L added as soluble protein in cell …; test: cell-based or functional assay; remark: listed apart in the source
# Chain of human FcRn (P55899 24-297 limits assumed, form in doubt, chain 1 of 2): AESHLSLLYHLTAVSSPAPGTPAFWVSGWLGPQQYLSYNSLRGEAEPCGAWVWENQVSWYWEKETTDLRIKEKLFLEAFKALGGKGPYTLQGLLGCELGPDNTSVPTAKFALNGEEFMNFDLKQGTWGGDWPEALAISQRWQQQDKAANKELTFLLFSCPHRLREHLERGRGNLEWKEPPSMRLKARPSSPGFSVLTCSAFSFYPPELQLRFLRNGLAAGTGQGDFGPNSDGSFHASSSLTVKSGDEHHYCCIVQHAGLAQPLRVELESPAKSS
# Chain of human FcRn (P61769 21-119 limits assumed, form in doubt, chain 2 of 2): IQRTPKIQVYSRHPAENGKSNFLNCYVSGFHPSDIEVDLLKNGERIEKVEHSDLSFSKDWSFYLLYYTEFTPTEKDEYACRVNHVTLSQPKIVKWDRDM
# Chain of cynomolgus FcRn (Q8SPV9 24-297 limits assumed, chain 1 of 2): as the sequence (P55899 24-297 limits assumed, form in doubt, chain 1 of 2) above, with N39D, E44Q, G99S, S189G, S190N, L217M, S269T counted along it
# Chain of cynomolgus FcRn (Q8SPW0 21-119 limits assumed, chain 2 of 2): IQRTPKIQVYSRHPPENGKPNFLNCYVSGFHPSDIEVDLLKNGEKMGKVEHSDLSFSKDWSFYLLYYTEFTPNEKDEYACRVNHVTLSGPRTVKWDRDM
# T9 sequence (P08637 17-208 limits assumed): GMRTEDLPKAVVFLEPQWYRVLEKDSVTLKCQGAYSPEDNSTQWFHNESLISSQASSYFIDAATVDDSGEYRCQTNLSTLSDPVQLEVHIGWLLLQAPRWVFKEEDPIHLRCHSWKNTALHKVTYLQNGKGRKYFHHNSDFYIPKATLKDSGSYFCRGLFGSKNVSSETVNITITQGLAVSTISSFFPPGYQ
# Chain of human CD64 (P12314 16-288 limits assumed): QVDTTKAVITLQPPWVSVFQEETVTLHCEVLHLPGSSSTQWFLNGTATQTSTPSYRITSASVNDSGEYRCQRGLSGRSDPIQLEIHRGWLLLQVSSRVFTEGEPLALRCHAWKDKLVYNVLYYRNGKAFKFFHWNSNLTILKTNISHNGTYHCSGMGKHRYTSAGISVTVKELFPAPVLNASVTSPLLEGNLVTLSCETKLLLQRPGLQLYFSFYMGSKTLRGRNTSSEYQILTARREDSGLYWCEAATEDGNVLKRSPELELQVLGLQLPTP
# T10 sequence (P08637 17-208 F176V limits assumed): as the sequence (P08637 17-208 limits assumed) above, with F160V counted along it
# T11 sequence (P02745 23-245, chain 1 of 3): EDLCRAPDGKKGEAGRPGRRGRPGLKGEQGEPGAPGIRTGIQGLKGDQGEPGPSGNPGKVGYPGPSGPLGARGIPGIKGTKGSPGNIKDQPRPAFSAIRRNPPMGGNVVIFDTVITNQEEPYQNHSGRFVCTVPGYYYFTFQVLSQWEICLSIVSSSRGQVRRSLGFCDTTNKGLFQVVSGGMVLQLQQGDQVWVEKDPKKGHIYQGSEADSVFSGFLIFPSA
# T11 sequence (P02746 28-253, chain 2 of 3, further chain): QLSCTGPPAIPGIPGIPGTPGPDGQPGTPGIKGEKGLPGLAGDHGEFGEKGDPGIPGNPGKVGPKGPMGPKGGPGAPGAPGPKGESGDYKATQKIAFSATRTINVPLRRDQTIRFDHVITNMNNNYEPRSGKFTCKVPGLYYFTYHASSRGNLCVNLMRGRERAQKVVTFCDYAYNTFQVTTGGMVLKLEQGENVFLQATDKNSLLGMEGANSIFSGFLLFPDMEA
# T11 sequence (P02747 29-245, chain 3 of 3, further chain): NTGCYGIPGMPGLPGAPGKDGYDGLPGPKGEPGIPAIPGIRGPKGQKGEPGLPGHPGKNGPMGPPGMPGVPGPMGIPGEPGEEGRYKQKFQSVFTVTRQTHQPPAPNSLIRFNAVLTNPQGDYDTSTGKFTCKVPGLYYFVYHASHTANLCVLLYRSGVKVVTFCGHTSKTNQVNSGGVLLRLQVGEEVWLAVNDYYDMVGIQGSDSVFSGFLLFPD
# Chain of human CD16b (O75015 17-200 limits assumed): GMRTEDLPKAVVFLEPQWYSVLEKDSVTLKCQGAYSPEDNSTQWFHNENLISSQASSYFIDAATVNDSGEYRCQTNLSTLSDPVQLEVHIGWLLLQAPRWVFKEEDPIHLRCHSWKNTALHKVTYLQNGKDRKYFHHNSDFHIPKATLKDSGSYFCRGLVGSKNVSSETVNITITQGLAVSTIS
binder,measurement,setting,value
"anti-hOX40L antibody clone 105 (antibody, human IgG1, kappa, L234A L235A) heavy: EVRLVESGGGLVQPGGSLRLSCAASGFTFSSYAMTWVRQAPGKGLEWVSLISGSGGLTKYADSVKGRFTISRDNSKKTLYLQMNSLRAEDTAVYYCAKDEGLTTGEYWGQGTLVTVSSASTKGPSVFPLAPSSKSTSGGTAALGCLVKDYFPEPVTVSWNSGALTSGVHTFPAVLQSSGLYSLSSVVTVPSSSLGTQTYICNVNHKPSNTKVDKKVEPKSCDKTHTCPPCPAPEAAGGPSVFLFPPKPKDTLYITREPEVTCVVVDVSHEDPEVKFNWYVDGVEVHNAKTKPREEQYNSTYRVVSVLTVLHQDWLNGKEYKCKVSNKALPAPIEKTISKAKGQPREPQVYTLPPSRDELTKNQVSLTCLVKGFYPSDIAVEWESNGQPENNYKTTPPVLDSDGSFFLYSKLTVDKSRWQQGNVFSCSVMHEALHNHYTQKSLSLSPG light: DIQMTQSPSSLSASVGDRVTITCRASQGIRNDLGWYQQKPGKAPKRLIYATSSFQSGVPSRFSGSGSGTEFTLTISSLQPEDFATYYCLQHNSYPFTFGPGTKVDVKRTVAAPSVFIFPPSDEQLKSGTASVVCLLNNFYPREAKVQWKVDNALQSGNSQESVTEQDSKDSTYSLSSTLTLSKADYEKHKVYACEVTHQGLSSPVTKSFNRGEC",binding result,[1],no binding (tested: 6 µM)
same,binding result,[2],no binding (tested: 8 µM)
same,binding result,[3],no binding (tested: 8 µM)
same,binding result,[4],no binding (tested: 12.5 nM)
same,binding result,[5],no binding (tested: 6 µM)
same,binding result,[6],no binding (tested: 18 µM)
same,binding result,[7],no binding (tested: 10 µM)
same,EC50,[8],3.43 nM
same,Kd,[9],145 nM
same,koff,[9],0.0442 s⁻¹
same,kon,[9],306000 M⁻¹ s⁻¹
same,RU at 25 nM C1q,[10],-3.6 RU
same,Kd,[11],0.0494 nM
same,koff,[11],8.09e-05 s⁻¹
same,kon,[11],1.64e+06 M⁻¹ s⁻¹
same,Kd,[12],121 nM
same,koff,[12],0.0453 s⁻¹
same,kon,[12],374000 M⁻¹ s⁻¹
same,Kd,[13],0.141 nM
same,koff,[13],0.000125 s⁻¹
same,kon,[13],886000 M⁻¹ s⁻¹
same,IC50,[14],1.41 nM
same,"Donor 1 IC50, IL-2 release by pre-activated human CD4+ T cells with 20 ng/ml human OX40L",[15],1.37 nM
same,"Donor 2 IC50, IL-2 release by pre-activated human CD4+ T cells with 20 ng/ml human OX40L",[15],1.33 nM
same,"Donor 3 IC50, IL-2 release by pre-activated human CD4+ T cells with 20 ng/ml human OX40L",[15],1 nM
same,"IC50, luminescence (RLU), hOX40 reporter cells with 50 ng/mL hOX40L",[16],0.852 nM
